Data published in patent US20090136450A1, “THERAPY FOR NEUROLOGICAL DISEASES” (priority 2005, published 2009).

System: Experimental Autoimmune Encephalomyelitis (EAE)
Assay: chronic EAE model in C57BY6 mice, clinical score
Type: in vivo
Conditions: chronic EAE in C57BY6 mice (MOG/CFA + B. pertussis toxin); subcutaneous daily treatment, 20,000 U/mouse, started at onset of the disease, 28 to 30 days
Method: The most widely used animal model for multiple sclerosis is Experimental Autoimmune Encephalomyelitis (EAE), based on shared histopathological and clinical features with the human disease:
The chronic EAE model in C57BY6 mice shares some common traits with the primary progressive (PP) or secondary progressive (SP) forms of MS. Mice are immunized in both flanks at day 0 and day 7 with 200 μg s.c. of myelin oligodendrocyte glycoprotein (MOG) in Complete Freund's Adjuvant (CFA) and followed by two injections (on day 0 and day 2) with 500 ng i.p. of B. pertussis toxin.
Groups are composed of 10 to 13 EAE mice. Clinical scores, overall health status, body weight and mortality are recorded daily. Starting from day 7 the animals are individually examined for the presence of paralysis by means of a clinical score: 0=no sign of disease, 1=tail paralysis, 2=tail paralysis+hindlimb weakness or partial hindlimb paralysis, 3=tail paralysis+complete hindlimb paralysis, 4=tail paralysis+hindlimb paralysis+weakness or partial paralysis of forelimbs, 5=moribund or dead.
Starting from day 10-12, most animals are becoming increasingly paralysed.
Therapeutic treatments are started at the onset of the disease, thus once the disease is already established but still progressing and continued for 28 to 30 days. […]

B1: mIFNβ: mIFNβ (Serono Pharmaceutical Research Institute, Geneva), interferon beta given to EAE mice (protein, UniProt P01575 22-182, looked up)
Interferon beta: INYKQLQLQERTNIRKCQELLEQLNGKINLTYRADFKIPMEMTEKMQKSYTAFAIQEMLQNVFLVFRNNFSSTGWNETIVVRLLDELHQQTVFLKTVLEEKQEERLTWEMSSTALHLKSYYWRVQRYLKLMKYNSYAWMVVRAEIFRNFLIIRRLTRNFQN
clinical output (severity of the disease, paralysis clinical score): significantly reducing the severity of the disease from complete hindlimb to partial hindlimb paralysis
